# According to the supplement of paper PMC11811203:
# B1: THAP1; numbered along this chain (parent)
# chain: MVQSCSAYGCKNRYDKDKPVSFHKFPLTRPSLCKEWEAAVRRKNFKPTKYSSICSEHFTPDCFKRECNNKLLKENAVPTIFLCTEPHDKKEDLLEPQEQLPPPPLPPPVSQVDAAIGLLMPPLQTPVNLSVFCDHNYTVEDTMHQRKRIHQLEQQVEKLRKKLKTAQQRCRRQERQLEKLKEVVHFQKEKDDVSERGYVILPNDYFEIVEVPA
# Variants of: B1
# Assay: THAP1 transcriptional activity (GFP+/GFP- enrichment relative to wild-type constructs) (ratio to WT); higher = more THAP1 activity (PSMB5 reporter activation)
# Details: with PSMB5 promoter-GFP reporter
# Outline: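 Variants were counted by Illumina sequencing of genomic DNA amplicons from BFP+ cells sorted into GFP-bright and GFP-dim bins five days after lentiviral transduction, in duplicate at MOI ~0.3. The library changed each of residues 2–213 of human THAP1 to all 20 amino acids and was introduced into THAP1-knockout HEK-293T cells with mClover3 knocked in at endogenous PSMB5. Activity equals the replicate-mean bright/dim read fold change over the mean of wild-type synonymous constructs.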
row,Variant,THAP1 transcriptional activity
1,MVQSCSAYGCKNRYDKDKPVSFHKFPLTRPSLCKEWEAAVRRKNFKPTKYSSICSEHFTPDCFKRECNNKLLKENAVPTIFLCTEPHDKKEDLLEPQEQLPPPPLPPPVAQVDAAIGLLMPPLQTPVNLSVFCDHNYTVEDTMHQRKRIHQLEQQVEKLRKKLKTAQQRCRRQERQLEKLKEVVHFQKEKDDVSERGYVILPNDYFEIVEVPA [S110A],0.787
2,MVQSCSAYGCKNRYDKDKPVSFHKFPLTRPSLCKEWEAAVRRKNFKPTKYSSICSEHFTPDCFKRECNNKLLKENAVPTIFLCTEPHDKKEDLLEPQEQLPPPPLPPPFSQVDAAIGLLMPPLQTPVNLSVFCDHNYTVEDTMHQRKRIHQLEQQVEKLRKKLKTAQQRCRRQERQLEKLKEVVHFQKEKDDVSERGYVILPNDYFEIVEVPA [V109F],0.884
3,MVQSCSAYGCKNRYDKDKPVSFHKFPLTRPSLCKEWEAAVRRKNFKPTKYSSICSEHFTPDCFKRECNNKLLKENAVPTIFLCTEPHDKKEDLLEPQEQLPPPPLPPPRSQVDAAIGLLMPPLQTPVNLSVFCDHNYTVEDTMHQRKRIHQLEQQVEKLRKKLKTAQQRCRRQERQLEKLKEVVHFQKEKDDVSERGYVILPNDYFEIVEVPA [V109R],0.788
4,MVQSCSAYGCKNRYDKDKPVSFHKFPLTRPSLCKEWEAAVRRKNFKPTKYSSICSEHFTPDCFKRECNNKLLKENAVPTIFLCTEPHDKKEDLLEPQEQLPPPPLPPPKSQVDAAIGLLMPPLQTPVNLSVFCDHNYTVEDTMHQRKRIHQLEQQVEKLRKKLKTAQQRCRRQERQLEKLKEVVHFQKEKDDVSERGYVILPNDYFEIVEVPA [V109K],2.39
5,MVQSCSAYGCKNRYDKDKPVSFHKFPLTRPSLCKEWEAAVRRKNFKPTKYSSICSEHFTPDCFKRECNNKLLKENAVPTIFLCTEPHDKKEDLLEPQEQLPPPPLPPPCSQVDAAIGLLMPPLQTPVNLSVFCDHNYTVEDTMHQRKRIHQLEQQVEKLRKKLKTAQQRCRRQERQLEKLKEVVHFQKEKDDVSERGYVILPNDYFEIVEVPA [V109C],1.49
6,MVQSCSAYGCKNRYDKDKPVSFHKFPLTRPSLCKEWEAAVRRKNFKPTKYSSICSEHFTPDCFKRECNNKLLKENAVPTIFLCTEPHDKKEDLLEPQEQLPPPPLPPPASQVDAAIGLLMPPLQTPVNLSVFCDHNYTVEDTMHQRKRIHQLEQQVEKLRKKLKTAQQRCRRQERQLEKLKEVVHFQKEKDDVSERGYVILPNDYFEIVEVPA [V109A],1.33
7,MVQSCSAYGCKNRYDKDKPVSFHKFPLTRPSLCKEWEAAVRRKNFKPTKYSSICSEHFTPDCFKRECNNKLLKENAVPTIFLCTEPHDKKEDLLEPQEQLPPPPLPPPSSQVDAAIGLLMPPLQTPVNLSVFCDHNYTVEDTMHQRKRIHQLEQQVEKLRKKLKTAQQRCRRQERQLEKLKEVVHFQKEKDDVSERGYVILPNDYFEIVEVPA [V109S],1.31
8,MVQSCSAYGCKNRYDKDKPVSFHKFPLTRPSLCKEWEAAVRRKNFKPTKYSSICSEHFTPDCFKRECNNKLLKENAVPTIFLCTEPHDKKEDLLEPQEQLPPPPLPPPMSQVDAAIGLLMPPLQTPVNLSVFCDHNYTVEDTMHQRKRIHQLEQQVEKLRKKLKTAQQRCRRQERQLEKLKEVVHFQKEKDDVSERGYVILPNDYFEIVEVPA [V109M],1.17
9,MVQSCSAYGCKNRYDKDKPVSFHKFPLTRPSLCKEWEAAVRRKNFKPTKYSSICSEHFTPDCFKRECNNKLLKENAVPTIFLCTEPHDKKEDLLEPQEQLPPPPLPPPESQVDAAIGLLMPPLQTPVNLSVFCDHNYTVEDTMHQRKRIHQLEQQVEKLRKKLKTAQQRCRRQERQLEKLKEVVHFQKEKDDVSERGYVILPNDYFEIVEVPA [V109E],3.82
10,MVQSCSAYGCKNRYDKDKPVSFHKFPLTRPSLCKEWEAAVRRKNFKPTKYSSICSEHFTPDCFKRECNNKLLKENAVPTIFLCTEPHDKKEDLLEPQEQLPPPPLPPPGSQVDAAIGLLMPPLQTPVNLSVFCDHNYTVEDTMHQRKRIHQLEQQVEKLRKKLKTAQQRCRRQERQLEKLKEVVHFQKEKDDVSERGYVILPNDYFEIVEVPA [V109G],1.96
11,MVQSCSAYGCKNRYDKDKPVSFHKFPLTRPSLCKEWEAAVRRKNFKPTKYSSICSEHFTPDCFKRECNNKLLKENAVPTIFLCTEPHDKKEDLLEPQEQLPPPPLPPPISQVDAAIGLLMPPLQTPVNLSVFCDHNYTVEDTMHQRKRIHQLEQQVEKLRKKLKTAQQRCRRQERQLEKLKEVVHFQKEKDDVSERGYVILPNDYFEIVEVPA [V109I],0.777
12,MVQSCSAYGCKNRYDKDKPVSFHKFPLTRPSLCKEWEAAVRRKNFKPTKYSSICSEHFTPDCFKRECNNKLLKENAVPTIFLCTEPHDKKEDLLEPQEQLPPPPLPPPLSQVDAAIGLLMPPLQTPVNLSVFCDHNYTVEDTMHQRKRIHQLEQQVEKLRKKLKTAQQRCRRQERQLEKLKEVVHFQKEKDDVSERGYVILPNDYFEIVEVPA [V109L],2.8
13,MVQSCSAYGCKNRYDKDKPVSFHKFPLTRPSLCKEWEAAVRRKNFKPTKYSSICSEHFTPDCFKRECNNKLLKENAVPTIFLCTEPHDKKEDLLEPQEQLPPPPLPPPTSQVDAAIGLLMPPLQTPVNLSVFCDHNYTVEDTMHQRKRIHQLEQQVEKLRKKLKTAQQRCRRQERQLEKLKEVVHFQKEKDDVSERGYVILPNDYFEIVEVPA [V109T],1.18
14,MVQSCSAYGCKNRYDKDKPVSFHKFPLTRPSLCKEWEAAVRRKNFKPTKYSSICSEHFTPDCFKRECNNKLLKENAVPTIFLCTEPHDKKEDLLEPQEQLPPPPLPPPNSQVDAAIGLLMPPLQTPVNLSVFCDHNYTVEDTMHQRKRIHQLEQQVEKLRKKLKTAQQRCRRQERQLEKLKEVVHFQKEKDDVSERGYVILPNDYFEIVEVPA [V109N],2.02
15,MVQSCSAYGCKNRYDKDKPVSFHKFPLTRPSLCKEWEAAVRRKNFKPTKYSSICSEHFTPDCFKRECNNKLLKENAVPTIFLCTEPHDKKEDLLEPQEQLPPPPLPPPYSQVDAAIGLLMPPLQTPVNLSVFCDHNYTVEDTMHQRKRIHQLEQQVEKLRKKLKTAQQRCRRQERQLEKLKEVVHFQKEKDDVSERGYVILPNDYFEIVEVPA [V109Y],0.304
16,MVQSCSAYGCKNRYDKDKPVSFHKFPLTRPSLCKEWEAAVRRKNFKPTKYSSICSEHFTPDCFKRECNNKLLKENAVPTIFLCTEPHDKKEDLLEPQEQLPPPPLPPPDSQVDAAIGLLMPPLQTPVNLSVFCDHNYTVEDTMHQRKRIHQLEQQVEKLRKKLKTAQQRCRRQERQLEKLKEVVHFQKEKDDVSERGYVILPNDYFEIVEVPA [V109D],2.07
17,MVQSCSAYGCKNRYDKDKPVSFHKFPLTRPSLCKEWEAAVRRKNFKPTKYSSICSEHFTPDCFKRECNNKLLKENAVPTIFLCTEPHDKKEDLLEPQEQLPPPPLPPPWSQVDAAIGLLMPPLQTPVNLSVFCDHNYTVEDTMHQRKRIHQLEQQVEKLRKKLKTAQQRCRRQERQLEKLKEVVHFQKEKDDVSERGYVILPNDYFEIVEVPA [V109W],0.467
18,MVQSCSAYGCKNRYDKDKPVSFHKFPLTRPSLCKEWEAAVRRKNFKPTKYSSICSEHFTPDCFKRECNNKLLKENAVPTIFLCTEPHDKKEDLLEPQEQLPPPPLPPPQSQVDAAIGLLMPPLQTPVNLSVFCDHNYTVEDTMHQRKRIHQLEQQVEKLRKKLKTAQQRCRRQERQLEKLKEVVHFQKEKDDVSERGYVILPNDYFEIVEVPA [V109Q],1.24
19,MVQSCSAYGCKNRYDKDKPVSFHKFPLTRPSLCKEWEAAVRRKNFKPTKYSSICSEHFTPDCFKRECNNKLLKENAVPTIFLCTEPHDKKEDLLEPQEQLPPPPLPPQVSQVDAAIGLLMPPLQTPVNLSVFCDHNYTVEDTMHQRKRIHQLEQQVEKLRKKLKTAQQRCRRQERQLEKLKEVVHFQKEKDDVSERGYVILPNDYFEIVEVPA [P108Q],1.31
20,MVQSCSAYGCKNRYDKDKPVSFHKFPLTRPSLCKEWEAAVRRKNFKPTKYSSICSEHFTPDCFKRECNNKLLKENAVPTIFLCTEPHDKKEDLLEPQEQLPPPPLPPVVSQVDAAIGLLMPPLQTPVNLSVFCDHNYTVEDTMHQRKRIHQLEQQVEKLRKKLKTAQQRCRRQERQLEKLKEVVHFQKEKDDVSERGYVILPNDYFEIVEVPA [P108V],2.03
21,MVQSCSAYGCKNRYDKDKPVSFHKFPLTRPSLCKEWEAAVRRKNFKPTKYSSICSEHFTPDCFKRECNNKLLKENAVPTIFLCTEPHDKKEDLLEPQEQLPPPPLPPTVSQVDAAIGLLMPPLQTPVNLSVFCDHNYTVEDTMHQRKRIHQLEQQVEKLRKKLKTAQQRCRRQERQLEKLKEVVHFQKEKDDVSERGYVILPNDYFEIVEVPA [P108T],1.43
22,MVQSCSAYGCKNRYDKDKPVSFHKFPLTRPSLCKEWEAAVRRKNFKPTKYSSICSEHFTPDCFKRECNNKLLKENAVPTIFLCTEPHDKKEDLLEPQEQLPPPPLPPKVSQVDAAIGLLMPPLQTPVNLSVFCDHNYTVEDTMHQRKRIHQLEQQVEKLRKKLKTAQQRCRRQERQLEKLKEVVHFQKEKDDVSERGYVILPNDYFEIVEVPA [P108K],0.9
23,MVQSCSAYGCKNRYDKDKPVSFHKFPLTRPSLCKEWEAAVRRKNFKPTKYSSICSEHFTPDCFKRECNNKLLKENAVPTIFLCTEPHDKKEDLLEPQEQLPPPPLPPWVSQVDAAIGLLMPPLQTPVNLSVFCDHNYTVEDTMHQRKRIHQLEQQVEKLRKKLKTAQQRCRRQERQLEKLKEVVHFQKEKDDVSERGYVILPNDYFEIVEVPA [P108W],0.601
24,MVQSCSAYGCKNRYDKDKPVSFHKFPLTRPSLCKEWEAAVRRKNFKPTKYSSICSEHFTPDCFKRECNNKLLKENAVPTIFLCTEPHDKKEDLLEPQEQLPPPPLPPYVSQVDAAIGLLMPPLQTPVNLSVFCDHNYTVEDTMHQRKRIHQLEQQVEKLRKKLKTAQQRCRRQERQLEKLKEVVHFQKEKDDVSERGYVILPNDYFEIVEVPA [P108Y],0.559
25,MVQSCSAYGCKNRYDKDKPVSFHKFPLTRPSLCKEWEAAVRRKNFKPTKYSSICSEHFTPDCFKRECNNKLLKENAVPTIFLCTEPHDKKEDLLEPQEQLPPPPLPPMVSQVDAAIGLLMPPLQTPVNLSVFCDHNYTVEDTMHQRKRIHQLEQQVEKLRKKLKTAQQRCRRQERQLEKLKEVVHFQKEKDDVSERGYVILPNDYFEIVEVPA [P108M],0.588
26,MVQSCSAYGCKNRYDKDKPVSFHKFPLTRPSLCKEWEAAVRRKNFKPTKYSSICSEHFTPDCFKRECNNKLLKENAVPTIFLCTEPHDKKEDLLEPQEQLPPPPLPPLVSQVDAAIGLLMPPLQTPVNLSVFCDHNYTVEDTMHQRKRIHQLEQQVEKLRKKLKTAQQRCRRQERQLEKLKEVVHFQKEKDDVSERGYVILPNDYFEIVEVPA [P108L],1.93
27,MVQSCSAYGCKNRYDKDKPVSFHKFPLTRPSLCKEWEAAVRRKNFKPTKYSSICSEHFTPDCFKRECNNKLLKENAVPTIFLCTEPHDKKEDLLEPQEQLPPPPLPPNVSQVDAAIGLLMPPLQTPVNLSVFCDHNYTVEDTMHQRKRIHQLEQQVEKLRKKLKTAQQRCRRQERQLEKLKEVVHFQKEKDDVSERGYVILPNDYFEIVEVPA [P108N],2.3
28,MVQSCSAYGCKNRYDKDKPVSFHKFPLTRPSLCKEWEAAVRRKNFKPTKYSSICSEHFTPDCFKRECNNKLLKENAVPTIFLCTEPHDKKEDLLEPQEQLPPPPLPPSVSQVDAAIGLLMPPLQTPVNLSVFCDHNYTVEDTMHQRKRIHQLEQQVEKLRKKLKTAQQRCRRQERQLEKLKEVVHFQKEKDDVSERGYVILPNDYFEIVEVPA [P108S],1.65
